What was measured:
[1] = target: cross-linked NBD1-M dimer with Walker B mutation E271Q in the cross-linked interface (Thermus thermophilus) (UniProt Q9RA63); assay: SEC-MALS; Superdex 200 10/300 GL with multiangle static light scattering (SLS), buffer A (50 mM Tris/HCl pH 7.5, 50 mM KCl, 5 mM MgCl2, 2 mM EDTA); running buffer nucleotide-free or with 2 mM ADP or 2 mM ATP; 40 μl of 100 μM injected, about 2 μM at the detector; self-association induced by nucleotide; conditions: scale: NBD1-M subunits
[2] = target: cross-linked NBD1-M dimer with Walker B mutation E271Q in the free interface (Thermus thermophilus) (UniProt Q9RA63); assay: as above; conditions: scale: NBD1-M subunits

Substance | stoichiometry N [1] | stoichiometry N [2]
cross-linked NBD1-M dimer with Walker B mutation E271Q in the cross-linked interface (from UniProt Q9RA63 141-534; Q9RA63 141-534) (complex) | 4 | –
cross-linked NBD1-M dimer with Walker B mutation E271Q in the free interface (from UniProt Q9RA63 141-534; Q9RA63 141-534) (complex) | – | 4

From publication PMC4239642, “trans-Acting Arginine Residues in the AAA+ Chaperone ClpB Allosterically Regulate the Activity through Inter- and Intradomain Communication” (The Journal of Biological Chemistry, 2014)
